Test results as given in publication PMC10980815, “Cell surface patching via CXCR4-targeted nanothreads for cancer metastasis inhibition” (Nature Communications, 2024).
Ends that are not written are not given here. HPMA copolymer = HPMA copolymer made by RAFT copolymerization of HPMA with N-(3-aminopropyl)methacrylamide (APMA), bearing maleimide groups for grafting

Assay: Pharmacokinetics at each cycle of a four-round treatment regimen
Assay type: in vivo, female mice
Design: PK curves: unit not given here
Settings: for AUC0-t / AUC0-∞ / MRT0-t / MRT0-∞ / T1/2z: same

With “P-CM2-Cy3: Cy3-labeled P-CM2 (C(HPMA copolymer)YGGEVSALEKEVSALEKKNSALEKEVSALEKEVSALEK; also: Cy3 label on conjugate, position not given here)” the PK curves (Round 3, Time 0.041667 Day, replicate 1) was 171.135, the PK curves (Round 3, Time 0.041667 Day, replicate 2) was 180.496 and the PK curves (Round 3, Time 0.041667 Day, replicate 3) was 188.668. For the same substance, the PK curves (Round 3, Time 0.041667 Day, replicate 4) was 205.584, the PK curves (Round 3, Time 0.041667 Day, replicate 5) was 224.681 and the PK curves (Round 3, Time 0.083333 Day, replicate 1) was 156.708. It also gave a PK curves (Round 3, Time 0.083333 Day, replicate 2) of 161.465, a PK curves (Round 3, Time 0.083333 Day, replicate 3) of 162.063 and a PK curves (Round 3, Time 0.083333 Day, replicate 4) of 168.293. It also gave a PK curves (Round 3, Time 0.083333 Day, replicate 5) of 190.32, a PK curves (Round 3, Time 0.166667 Day, replicate 1) of 118.152 and a PK curves (Round 3, Time 0.166667 Day, replicate 2) of 137.258. The PK curves (Round 3, Time 0.166667 Day, replicate 3) was 138.998, the PK curves (Round 3, Time 0.166667 Day, replicate 4) was 139.637 and the PK curves (Round 3, Time 0.166667 Day, replicate 5) was 146.663. It also gave a PK curves (Round 3, Time 0.25 Day, replicate 1) of 101.928, a PK curves (Round 3, Time 0.25 Day, replicate 2) of 105.033 and a PK curves (Round 3, Time 0.25 Day, replicate 3) of 108.293. The PK curves (Round 3, Time 0.25 Day, replicate 4) was 115.298, the PK curves (Round 3, Time 0.25 Day, replicate 5) was 119.681 and the PK curves (Round 3, Time 0.333333 Day, replicate 1) was 71.2229. For the same substance, the PK curves (Round 3, Time 0.333333 Day, replicate 2) was 72.9543, the PK curves (Round 3, Time 0.333333 Day, replicate 3) was 93.0071 and the PK curves (Round 3, Time 0.333333 Day, replicate 4) was 101.069. The PK curves (Round 3, Time 0.333333 Day, replicate 5) was 102.809, the PK curves (Round 3, Time 0.5 Day, replicate 1) was 54.5332 and the PK curves (Round 3, Time 0.5 Day, replicate 2) was 55.1656. The PK curves (Round 3, Time 0.5 Day, replicate 3) was 58.857, the PK curves (Round 3, Time 0.5 Day, replicate 4) was 63.5997 and the PK curves (Round 3, Time 0.5 Day, replicate 5) was 67.2877. It also gave a PK curves (Round 3, Time 1 Day, replicate 1) of 18.8846, a PK curves (Round 3, Time 1 Day, replicate 2) of 19.9794 and a PK curves (Round 3, Time 1 Day, replicate 3) of 34.0857. For the same substance, the PK curves (Round 3, Time 1 Day, replicate 4) was 37.3031, the PK curves (Round 3, Time 1 Day, replicate 5) was 39.9731 and the PK curves (Round 3, Time 2 Day, replicate 1) was 13.6659. For the same substance, the PK curves (Round 3, Time 2 Day, replicate 2) was 15.2182, the PK curves (Round 3, Time 2 Day, replicate 3) was 16.959 and the PK curves (Round 3, Time 2 Day, replicate 4) was 18.4095. The PK curves (Round 3, Time 2 Day, replicate 5) was 23.265, the PK curves (Round 3, Time 3 Day, replicate 1) was 5.299 and the PK curves (Round 3, Time 3 Day, replicate 2) was 5.6755. The PK curves (Round 3, Time 3 Day, replicate 3) was 6.127, the PK curves (Round 3, Time 3 Day, replicate 4) was 11.4512 and the PK curves (Round 3, Time 3 Day, replicate 5) was 11.8082. For the same substance, the AUC0-t (Round 3) was 2847.475 ± 463.394 ng·h/mL, the “AUC0-∞” value (Round 3) was 3060.689 ± 565.511 ng·h/mL and the MRT0-t (Round 3) was 17.779 ± 1.27 h. The “MRT0-∞” value (Round 3) was 23.927 ± 3.854 h, the T1/2z (Round 3) was 19.193 ± 3.042 h and the PK curves (Round 4, Time 0.041667 Day, replicate 1) was 230.725. The PK curves (Round 4, Time 0.041667 Day, replicate 2) was 194.218, the PK curves (Round 4, Time 0.041667 Day, replicate 3) was 209.902 and the PK curves (Round 4, Time 0.041667 Day, replicate 4) was 229.24. For the same substance, the PK curves (Round 4, Time 0.041667 Day, replicate 5) was 229.61, the PK curves (Round 4, Time 0.083333 Day, replicate 1) was 173.583 and the PK curves (Round 4, Time 0.083333 Day, replicate 2) was 157.544. The PK curves (Round 4, Time 0.083333 Day, replicate 3) was 163.249, the PK curves (Round 4, Time 0.083333 Day, replicate 4) was 167.214 and the PK curves (Round 4, Time 0.083333 Day, replicate 5) was 205.861. The PK curves (Round 4, Time 0.166667 Day, replicate 1) was 141.479, the PK curves (Round 4, Time 0.166667 Day, replicate 2) was 127.721 and the PK curves (Round 4, Time 0.166667 Day, replicate 3) was 129.082. The PK curves (Round 4, Time 0.166667 Day, replicate 4) was 138.936, the PK curves (Round 4, Time 0.166667 Day, replicate 5) was 150.211 and the PK curves (Round 4, Time 0.25 Day, replicate 1) was 117.333. The PK curves (Round 4, Time 0.25 Day, replicate 2) was 116.423, the PK curves (Round 4, Time 0.25 Day, replicate 3) was 120.111 and the PK curves (Round 4, Time 0.25 Day, replicate 4) was 124.299. It also gave a PK curves (Round 4, Time 0.25 Day, replicate 5) of 125.432, a PK curves (Round 4, Time 0.333333 Day, replicate 1) of 69.1458 and a PK curves (Round 4, Time 0.333333 Day, replicate 2) of 73.8277. For the same substance, the PK curves (Round 4, Time 0.333333 Day, replicate 3) was 84.2185, the PK curves (Round 4, Time 0.333333 Day, replicate 4) was 100.254 and the PK curves (Round 4, Time 0.333333 Day, replicate 5) was 118.152. For the same substance, the PK curves (Round 4, Time 0.5 Day, replicate 1) was 43.1042, the PK curves (Round 4, Time 0.5 Day, replicate 2) was 47.0545 and the PK curves (Round 4, Time 0.5 Day, replicate 3) was 50.0192. It also gave a PK curves (Round 4, Time 0.5 Day, replicate 4) of 54.418, a PK curves (Round 4, Time 0.5 Day, replicate 5) of 70.7604 and a PK curves (Round 4, Time 1 Day, replicate 1) of 21.2271. It also gave a PK curves (Round 4, Time 1 Day, replicate 2) of 23.1099, a PK curves (Round 4, Time 1 Day, replicate 3) of 27.0861 and a PK curves (Round 4, Time 1 Day, replicate 4) of 30.0884. It also gave a PK curves (Round 4, Time 1 Day, replicate 5) of 41.0104, a PK curves (Round 4, Time 2 Day, replicate 1) of 4.911 and a PK curves (Round 4, Time 2 Day, replicate 2) of 16.8258. The PK curves (Round 4, Time 2 Day, replicate 3) was 17.3047, the PK curves (Round 4, Time 2 Day, replicate 4) was 21.1219 and the PK curves (Round 4, Time 2 Day, replicate 5) was 21.2086. It also gave a PK curves (Round 4, Time 3 Day, replicate 1) of 3.457, a PK curves (Round 4, Time 3 Day, replicate 2) of 6.287 and a PK curves (Round 4, Time 3 Day, replicate 3) of 7.344. For the same substance, the PK curves (Round 4, Time 3 Day, replicate 4) was 8.892, the PK curves (Round 4, Time 3 Day, replicate 5) was 12.3135 and the AUC0-t (Round 4) was 2805.642 ± 501.797 ng·h/mL. The “AUC0-∞” value (Round 4) was 3022.978 ± 666.243 ng·h/mL, the MRT0-t (Round 4) was 16.883 ± 2.739 h and the “MRT0-∞” value (Round 4) was 22.801 ± 5.68 h. The T1/2z (Round 4) was 18.712 ± 5.773 h.
